Results: the supplement of paper PMC12042874
± gives the uncertainty stated by the source.

Experiment: amyloid nucleation score (Sup35N fusion, yeast selection) (log enrichment); library NNK1; higher = more nucleation; inactive = no reads after selection
In short: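 Three technical output replicates were used for random libraries. Psi-negative yeast expressing peptides of 20 random codons fused to Sup35N were induced with 100 μM copper sulfate for 24 hours and grown 7 days at 30°C on medium lacking adenine and uracil, and input and output plasmid inserts were Illumina-sequenced, excluding sequences with under 100 input reads. The nucleation score is the DiMSum log enrichment of output over input reads, centred on the mode score of non-aggregating sequences.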

Substance	amyloid nucleation score
RLIFEVFYLTFRVLT	-0.457 ± 0.39
RLLCCFCTWTLQMFCYSGCC	5.981 ± 0.053
RLLFLFVHVSYGI	0.014 ± 0.47
RLLPYILMTFLHEYVGAGYE	0.561 ± 0.37
RLMNFE	-0.257 ± 0.43
RLQSKLLHCS	-0.169 ± 0.45
RLSLETIVASFIYCCCAKFA	1.66 ± 0.5
RLSVVDELLCVLILGFRCYT	0.372 ± 1.4
RLVESRLCASCVDGG	-0.166 ± 0.46
RLVLNCRYNYCSREFVFYAV	0.292 ± 0.35
RLVNPRDCKFNDTRTFCSRR	0.118 ± 0.52
RLVTYPSVLSSVSEGSGRGG	1.05 ± 0.66
RLYLNDNTLSCF	-0.001 ± 0.22
RMFVGWHSLERIL	1.21 ± 0.43
RMMSVGALGQG	0.323 ± 0.76
RMRATLDLSFWFGKEQYARV	0.389 ± 0.45
RMYIHMYS	1.32 ± 0.33
RMYYT	-1.52 ± 0.82
RNFLNAYW	-0.307 ± 0.85
RNGLALRLTNTTRSTYLSRQ	-0.166 ± 1.1
RNIWNLVLDKNAHMNCFMTH	0.087 ± 0.46
RNNSVLLLSSYANKRYSPAW	-0.439 ± 0.78
RNQFDYDRWYVMRSHYRVIC	-0.526 ± 0.58
RNQRSSMWVGNRCYGGRCVW	0.898 ± 0.93
RNTVGYVSNTGVLYILTS	6.24 ± 0.067

Substance	amyloid nucleation score
RNWCIMFLTYVL	3.74 ± 0.083
RPAKLMAMPKILIGPH	0.131 ± 0.26
RPNMVNVKNSRRFSL	0.257 ± 0.48
RQAFIRGGLEAAKGAYHVLG	-1.38 ± 2.4
RQPANEELPFSVTGK	-0.892 ± 0.65
RQTLEKF	-0.168 ± 0.28
RQVRMGFPGFWFMVIDYCRS	0.499 ± 0.39
RRCMLLYCGLGAGALGSDGR	-0.539 ± 1.1
RRCSEM	0.853 ± 0.4
RRENIP	0.01 ± 0.42
RRFEWFAGHCGIVDLPLGVG	0.568 ± 0.97
RRGAKRSLWLIRNLWWDKSK	inactive
RRHAHLWLYLGNLGCWLEEV	-0.139 ± 0.38
RRLHMLVNHLKCAGATRGGR	-0.172 ± 0.34
RRLPA	-0.091 ± 0.9
RRLTRIIKAKL	0.018 ± 0.78
RRLYSKKILRDWLASSFSTD	inactive
RRMKFDMSNGRQGSLVNHGR	0.214 ± 0.53
RRMTDLFV	-0.354 ± 0.3
RRPNETS	-1.08 ± 2.4
RRRSLLLVWRMTVGWVWGWD	-0.215 ± 0.62
RRTIYASLRLY	0.066 ± 0.29
RRVLRTSKNSSLMDFYATIE	0.299 ± 0.79
RRYEFKRLGSMSDGVTLRSM	-0.759 ± 0.5
RRYVICNYCLYSRV	1.12 ± 0.33

Substance	amyloid nucleation score
RSCITESRRHIWRTGMVEKW	0.716 ± 0.48
RSFEGKRFNVGWLFASATFM	0.157 ± 0.46
RSFSECLMSGHTIFQFGMYM	4.26 ± 0.14
RSFTVCEFMFLFRLWDNSAY	0.11 ± 0.9
RSGGTSSTALQQQLRFNRTR	0.581 ± 0.33
RSLPNPL	-0.29 ± 0.42
RSSILMVVVANHSIIVTRGV	3.04 ± 0.13
RSSKGIPLMENPLVYTMASR	0.005 ± 1.7
RSSMPRSWAVWPRWE	0.176 ± 0.71
RSSWKVLKRFRVVRERHEIT	0.257 ± 1.1
RSSWQMSPNMLLTNLNCCSS	6.367 ± 0.047
RSTSF	inactive
RSVPCPYYGLL	0.033 ± 0.66
RSVSLC	0.907 ± 0.61
RSVSLNRSTRRRR	1.1 ± 0.41
RSVYFIYTWIWQVSAVIFLC	0.107 ± 0.2
RTFGYGHHIAGGCRDYRVYR	-0.373 ± 0.62
RTFTGRDGCVKDVCTPHFEM	0.632 ± 0.9
RTICKVIFVSEVKSLFWNMS	1.87 ± 0.41
RTINMQLVTLYLTSRVVDNF	1.1 ± 0.47
RTLFIRSLVYFVLSSFIFAV	-0.004 ± 0.36
RTLGFLRCFIITSVDSTKNA	0.514 ± 0.8
RTLLSFNRDVSFEGQPPGWL	0.352 ± 1
RTLMRLN	-0.762 ± 0.41
RTLPSG	-0.12 ± 0.19

Substance	amyloid nucleation score
RTPFNVDPKPTDPRNTRCST	0.822 ± 0.93
RTRSGRVICNGFPRYSTTAA	inactive
RTSPSYGIPNWAELLRVE	-0.311 ± 0.69
RTVQSGHSSARCKIIGPYHD	-0.077 ± 1.7
RVAPKGNRARDHVDSSSECS	2.14 ± 0.18
RVCCWHFTFVTVCCKLLSMT	1.93 ± 0.23
RVGEKSVEWPAFLRYLMKWF	-0.008 ± 0.5
RVGNNLNFM	-0.915 ± 0.3
RVGSFMVNPSSCMSYAFWLR	0.443 ± 0.49
RVHSIDENVWMVQGQNSRAG	3.73 ± 0.16
RVLDLKWPCYMGSVNLASRR	0.016 ± 0.74
RVLRQMKSIC	-0.44 ± 0.83
RVNTCMSRGRA	-0.367 ± 0.61
RVNYIHD	-0.057 ± 0.46
RVRLTFCCLMAVRSRSMISK	0.436 ± 1.2
RVRSSMCGALWARKFYRTHI	-0.116 ± 0.49
RVVRSATADITACMSLNIYR	0.879 ± 0.56
RVWYCRGMCRP	-0.239 ± 0.93
RVYMFLARFGRESGWSVRQW	0.169 ± 1
RWCLVSGMILCSLLCVYSFN	-1.62 ± 2.4
RWCVVSEKTFCINYTRLSFA	0.888 ± 0.23
RWIFSSWLLDGILGERCQTV	-0.484 ± 1.1
RWMELMALSRKTPGRQKARC	-0.745 ± 1.5
RWRKVGIKEGLIMLESGVSR	-0.921 ± 2.4
RYCVHIWRCDSLNHHN	0.349 ± 0.41

Substance	amyloid nucleation score
RYDTNMFFSCCT	5.591 ± 0.054
RYEMSVHGV	0.391 ± 0.66
RYFCAIWLGCGERRSRVSKW	1.38 ± 0.34
RYFNGYITGNLNSASNARSS	1.81 ± 0.18
RYMSHGIGGTPV	0.142 ± 0.69
RYVSLDRPYTSNNNRYAKGV	0.475 ± 0.22
SACNLPACRSNKLAGRGRVM	0.408 ± 0.42
SADLCLMWSGTNC	inactive
SADQIYHKGQWHSWTNSTNQ	0.35 ± 0.29
SAGAYGVRGRGSTLMVVFEW	-0.066 ± 0.54
SAGYYPVVLCALILEAEYQD	-0.541 ± 0.61
SAHHLVIRFGMLYPREQHCL	0.299 ± 0.43
SAPFMNGLCTLSRVREISAH	0.222 ± 0.59
SARYTLKPQPWVHHLLK	0.523 ± 0.9
SATIKYHYFLTFFNVDRFCR	2.07 ± 0.46
SCETVWYVFNSAIACFTFRR	4.18 ± 0.15
SCFTTF	-1.54 ± 1.2
SCGSVFF	-0.758 ± 2.1
SCGTYFLFICHKSLYWHVHI	-0.594 ± 0.9
SCKDSCTEYSGAIYVLVWVK	0.604 ± 0.56
SCLIFVSHSTEGYYSTPTFP	2.26 ± 0.26
SCLPGPKRFL	0.496 ± 1.2
SCLSRASIYSRFHSNLYVKM	inactive
SCLVWLFRCFFRTYQYYEFI	0.253 ± 0.24
SCSELGMLERLDMGLTLEVL	-0.105 ± 0.36

Substance	amyloid nucleation score
SCVLRLNMAYIIVVVNSLEC	inactive
SCWPCQ	-1.09 ± 2.4
SCWVDSDHLNCFIYFTFVNT	-1.27 ± 2.7
SCYGEFEPFRESRMGRSNLA	0.538 ± 0.75
SDASLLTKSVFADGRDQVTR	0.433 ± 0.28
SDCVVVGHGVVRIYMDGVWP	5.84 ± 0.065
SDERKGPGYPSMITSWQGGS	-1.31 ± 2.4
SDGMFSYNVRFAQRSWMYRT	-0.14 ± 0.55
SDRSLVGRNAGM	-0.468 ± 0.65
SDSRVVLPLLIPLSART	0.865 ± 0.42
SDVLGMSQAIGASTSVAEVV	inactive
SDVYRGVVIVGHMIAKHMLV	0.494 ± 0.55
SEAMGMDNSQWSFALFMASM	0.184 ± 0.48
SEGKHNCKLT	-0.635 ± 0.95
SEIPKSYPNFDYVSFINNSL	-0.24 ± 0.39
SELEYPTMGVSVVRLCSSSG	0.1 ± 0.48
SELGVSSVRLERAFILGSWT	-1.63 ± 1
SEMPIFYLWDPQSGQRSWDG	0.036 ± 0.93
SESLWDRGTVPKRPCAASLQ	inactive
SFCSFEF	0.858 ± 0.88
SFDYRENCPINTVIWLRLCK	3.93 ± 0.098
SFFMYLNIRWIWSMCVNAIE	0.09 ± 0.58
SFGNVILSGIIRTTVLDRGV	-0.381 ± 0.74
SFHWQKGSSSYTVSPHSAKL	0.239 ± 0.26
SFMQFDIRFT	1.4 ± 0.27

Substance	amyloid nucleation score
SFNNFEFILVIDYKRKSYMR	-0.222 ± 0.36
SFNVAMCRCDVYL	7.027 ± 0.047
SFRCGSNNSIHD	-2.02 ± 1.7
SFSCSVVLNRILMGIIYTCG	-0.836 ± 0.55
SFSMFSEFSLLRCSAYRNPM	2.26 ± 0.063
SFTWRQNQVGNA	1.24 ± 0.4
SFVFLRNL	0.142 ± 0.32
SFWYYGDEKNVTVNLGFNES	-0.233 ± 0.79
SGGDFQCTRHMSVDLGLPVS	0.428 ± 0.64
SGGIQCTGGRISVSCAVGKN	-0.224 ± 0.94
SGGNLFRVMRWSMHFVSVRL	-0.355 ± 0.33
SGHNLWRRGQKWSL	-0.455 ± 0.58
SGINLLFVFS	2.95 ± 0.25
SGKPYLLGCTFSSVTLCPQV	-0.227 ± 0.38
SGKVVNPCMNDSDLVLNRIW	-0.011 ± 0.23
SGLLS	-1.12 ± 0.65
SGQPMIPGTCDNWNWRDYFT	6.04 ± 0.09
SGSALYLCAISLRVSTEEKP	-0.178 ± 0.85
SGSINENVKYSDTLVWLWKM	4.92 ± 0.055
SGTFLTFPYFIFCNVMICMS	6.969 ± 0.049
SHEFLSSVYQSVLIVSNF	-0.508 ± 0.58
SHERLNQCSNFSSWQNRGGL	-0.588 ± 0.73
